What was measured:
[1] = target: T1, soluble CD46 (UniProt P15529 35-343); experiment: Western blot, soluble CD46 as probe, anti-CD46 mAb
T1 construct: also called sCD46
T1 sequence: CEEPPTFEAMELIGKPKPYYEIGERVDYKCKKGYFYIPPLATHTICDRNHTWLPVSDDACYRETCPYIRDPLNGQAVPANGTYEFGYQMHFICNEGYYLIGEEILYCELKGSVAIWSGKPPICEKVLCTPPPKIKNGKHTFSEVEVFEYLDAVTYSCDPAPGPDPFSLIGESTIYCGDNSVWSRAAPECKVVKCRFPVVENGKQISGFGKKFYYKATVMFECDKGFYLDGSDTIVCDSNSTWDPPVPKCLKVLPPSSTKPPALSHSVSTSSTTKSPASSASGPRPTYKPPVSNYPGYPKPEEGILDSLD

[2] = target: T2, Recombinant human DSG2 protein (Leinco Technologies) (human, UniProt Q14126 50-609); experiment: Western blot of the blotted knob probed with soluble hDSG2, anti-DSG2 (6D8), HRP-anti-mouse IgG [upper panel]
T2 construct: also called soluble DSG2; soluble recombinant DSG2
T2 sequence: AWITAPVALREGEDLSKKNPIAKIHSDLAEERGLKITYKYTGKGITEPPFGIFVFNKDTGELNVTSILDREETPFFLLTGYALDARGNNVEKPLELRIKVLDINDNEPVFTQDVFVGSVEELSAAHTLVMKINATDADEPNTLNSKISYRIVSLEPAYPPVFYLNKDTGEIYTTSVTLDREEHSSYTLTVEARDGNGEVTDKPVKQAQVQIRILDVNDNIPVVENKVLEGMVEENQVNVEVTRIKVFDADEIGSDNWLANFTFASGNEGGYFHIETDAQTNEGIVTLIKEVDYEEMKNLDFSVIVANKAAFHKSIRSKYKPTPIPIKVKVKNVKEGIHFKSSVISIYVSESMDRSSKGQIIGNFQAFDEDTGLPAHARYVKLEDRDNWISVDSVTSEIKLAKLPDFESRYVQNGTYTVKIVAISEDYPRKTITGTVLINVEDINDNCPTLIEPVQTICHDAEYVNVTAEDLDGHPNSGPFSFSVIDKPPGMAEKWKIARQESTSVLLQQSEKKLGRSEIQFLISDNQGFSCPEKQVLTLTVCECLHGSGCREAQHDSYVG

[3] = target: T3, human DSG2 on cells (HeLa cells; polarized T84 cells) (human, UniProt Q14126 50-1118); experiment: cell-based or functional assay
T3 sequence: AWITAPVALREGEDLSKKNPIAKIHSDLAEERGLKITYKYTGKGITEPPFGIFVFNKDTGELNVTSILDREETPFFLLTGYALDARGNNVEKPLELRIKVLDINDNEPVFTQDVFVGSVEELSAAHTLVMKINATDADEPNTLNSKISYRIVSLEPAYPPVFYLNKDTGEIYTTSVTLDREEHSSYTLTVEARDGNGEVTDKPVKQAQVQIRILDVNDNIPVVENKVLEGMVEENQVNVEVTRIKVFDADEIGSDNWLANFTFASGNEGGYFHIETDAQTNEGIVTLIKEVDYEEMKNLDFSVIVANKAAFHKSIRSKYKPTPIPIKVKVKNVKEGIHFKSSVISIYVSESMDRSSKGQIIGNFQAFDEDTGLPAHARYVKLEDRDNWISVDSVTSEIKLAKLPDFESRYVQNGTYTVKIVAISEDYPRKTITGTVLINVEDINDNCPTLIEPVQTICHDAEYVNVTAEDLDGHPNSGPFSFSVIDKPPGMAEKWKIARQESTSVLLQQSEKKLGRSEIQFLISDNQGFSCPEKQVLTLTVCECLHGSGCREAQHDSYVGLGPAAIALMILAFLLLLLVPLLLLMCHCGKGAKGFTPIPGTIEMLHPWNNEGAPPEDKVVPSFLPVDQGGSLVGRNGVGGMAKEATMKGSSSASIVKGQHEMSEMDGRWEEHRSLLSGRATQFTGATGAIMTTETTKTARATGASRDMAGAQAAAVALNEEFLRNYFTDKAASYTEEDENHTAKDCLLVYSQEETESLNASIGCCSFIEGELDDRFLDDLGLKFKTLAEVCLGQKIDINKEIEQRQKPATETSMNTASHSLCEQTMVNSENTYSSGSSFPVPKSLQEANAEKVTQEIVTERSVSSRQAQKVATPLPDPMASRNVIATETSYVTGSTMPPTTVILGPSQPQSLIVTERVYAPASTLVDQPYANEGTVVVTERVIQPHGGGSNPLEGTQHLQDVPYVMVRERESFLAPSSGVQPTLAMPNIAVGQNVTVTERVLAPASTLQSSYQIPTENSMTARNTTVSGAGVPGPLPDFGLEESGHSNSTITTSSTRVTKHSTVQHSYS

[4] = target: T3, human DSG2 on cells (HeLa cells; …); experiment: cell-based or functional assay; remark: listed apart in the source
[5] = target: T2, Recombinant human DSG2 protein (Leinco …); experiment: not given; SPR on immobilised DSG2 by the context (FIG. 7)
[6] = target: T2, Recombinant human DSG2 protein (Leinco …); experiment: SPR (BIAcore 3000), DSG2 immobilised on CM4 chip, knob injected
[7] = target: T2, Recombinant human DSG2 protein (Leinco …); experiment: SPR (BIAcore 3000), DSG2 immobilised on the sensor chip, knobs injected at 2.5 to 10 µg/ml, BIAeval
[8] = target: T2, Recombinant human DSG2 protein (Leinco …); experiment: SPR (BIAcore 3000), DSG2 immobilised, BIAeval; as printed in this row, but kd/ka of the row gives 24.9 nM and paragraph 239 gives 405-fold over wt: the KD cells of Y250F and V239D look interchanged on the sheet
[9] = target: T2, Recombinant human DSG2 protein (Leinco …); experiment: SPR (BIAcore 3000), DSG2 immobilised, BIAeval; as printed in this row, but kd/ka of the row gives 11.4 nM and paragraph 239 gives 885-fold over wt: the KD cells of Y250F and V239D look interchanged on the sheet

B1: Ad3-S/Kn (ligand)
chain: NSIALKNNTLWTGPKPEANCIIEYGKQNPDSKLTLILVKNGGIVNGYVTLMGASDYVNTLFKNKNVSINVELYFDATGHILPDSSSLKTDLELKYKQTADFSARGFMPSTTAYPFVLPNAGTHNENYIFGQCYYKASDGALFPLEVTVMLNKRLPDSRTSYVMTFLWSLNAGLAPETTQATLITSPFTFSYIREDD
notes: also called wild-type Ad3 fibers
binding result [1]: no binding | binding result [2]: no binding

B2: JO-1 (self-dimerizing trimeric wild-type Ad3 fiber knob) (designed binder)
chain: MKVSALKEKVSALKEKVSALKEKVSALKEKVSALKEGSGGGSGGGSGGGSNSIALKNNTLWTGPKPEANCIIEYGKQNPDSKLTLILVKNGGIVNGYVTLMGASDYVNTLFKNKNVSINVELYFDATGHILPDSSSLKTDLELKYKQTADFSARGFMPSTTAYPFVLPNAGTHNENYIFGQCYYKASDGALFPLEVTVMLNKRLPDSRTSYVMTFLWSLNAGLAPETTQATLITSPFTFSYIREDD
IC50 (read off the curve), GFP MFI after Ad3-GFP infection of HeLa cells [3]: ~0.6 µg/mL | IC50 (read off the curve), % GFP-positive cells after Ad3-GFP infection of HeLa cells [4]: ~5 µg/mL

B3: JO-4 (affinity-enhanced version of JO-1) (designed binder)
chain: MRGSHHHHHHGSKVSALKEKVSALKEKVSALKEKVSALKEKVSALKEGSGGGSGGGSGGGSNSIALKNNTLWTGPKPEANCIIEYGKQNPDSKLTLILVKNGGIVNGYVTLMGASDYVNTLFKNKNVSINVELYFDATGHILPDSSSLKTDLELKYKQTADFSARGFMPSTTAYPFVLPNAGTHNENFIFGQCYYKASDGALFPLEVTVMLNKRLPDSRTSYVMTFLWSLNAGLAPETTQATLITSPFTFSYIREDD
Kd [5]: 11.4 nM

B4: Ad3 fiber knob mutant V239D without dimerization domain (ligand)
chain: NKLCSKLGNGLTFDSSNSIALKNNTLWTGPKPEANCIIEYGKQNPDSKLTLILVKNGGIVNGYVTLMGASDYVNTLFKNKNVSINVELYFDATGHILPDSSSLKTDLELKYKQTADFSARGFMPSTTAYPFDLPNAGTHNENYIFGQCYYKASDGALFPLEVTVMLNKRLPDSRTSYVMTFLWSLNAGLAPETTQATLITSPFTFSYIREDD
notes: range 108-319; also called V239D/noDD; not shown: N-terminal 6-His tag of pQE30 and linker
fold higher affinity than wt Ad3knob/noDD [6]: 405 fold | koff [7]: 0.00266 s⁻¹ | kon [7]: 107000 M⁻¹ s⁻¹ | Kd [8]: 11.4 nM

B5: Ad3 fiber knob mutant Y250F without dimerization domain (ligand)
chain: NKLCSKLGNGLTFDSSNSIALKNNTLWTGPKPEANCIIEYGKQNPDSKLTLILVKNGGIVNGYVTLMGASDYVNTLFKNKNVSINVELYFDATGHILPDSSSLKTDLELKYKQTADFSARGFMPSTTAYPFVLPNAGTHNENFIFGQCYYKASDGALFPLEVTVMLNKRLPDSRTSYVMTFLWSLNAGLAPETTQATLITSPFTFSYIREDD
notes: range 108-319; also called Y250F/noDD; not shown: N-terminal 6-His tag of pQE30 and linker
Kd [9]: 24.9 nM | fold higher affinity than wt Ad3knob/noDD [6]: 885 fold | koff [7]: 0.00264 s⁻¹ | kon [7]: 232000 M⁻¹ s⁻¹
